Target: T1, S. cerevisiae elongation factor eEF2 (C-terminally His6-tagged), bound with GDP and sordarin (S. cerevisiae, UniProt P32324 1-842, diphthamide at 699)
T1 construct: elongation factor 2 (eEF2), S. cerevisiae; residue numbers as in S. cerevisiae eEF2 (H108, H583, H694, Diph699); Complex assembled with eEF2•GTP and sordarin; also called eukaryotic elongation factor 2; translocase; source: yeast TKY675 cells, purified (Ni-NTA, SP Sepharose cation exchange, Superdex 200)
Assay: cryo-EM structure; 80S•TSV IRES•eEF2•GDP•sordarin complex, five structures (I-V) from one specimen; assembled from 40S (0.8 uM), 60S (0.8 uM), TSV IRES RNA (8 uM), eEF2 (5 uM), sordarin (800 uM), GTP (1 mM); 30°C; 45 mM HEPES·KOH pH 7.5, 10 mM MgCl2, 100 mM KCl, 2.5 mM spermine, 2 mM β-mercaptoethanol
Conditions: both partners purified

T1 sequence (P32324 whole entry): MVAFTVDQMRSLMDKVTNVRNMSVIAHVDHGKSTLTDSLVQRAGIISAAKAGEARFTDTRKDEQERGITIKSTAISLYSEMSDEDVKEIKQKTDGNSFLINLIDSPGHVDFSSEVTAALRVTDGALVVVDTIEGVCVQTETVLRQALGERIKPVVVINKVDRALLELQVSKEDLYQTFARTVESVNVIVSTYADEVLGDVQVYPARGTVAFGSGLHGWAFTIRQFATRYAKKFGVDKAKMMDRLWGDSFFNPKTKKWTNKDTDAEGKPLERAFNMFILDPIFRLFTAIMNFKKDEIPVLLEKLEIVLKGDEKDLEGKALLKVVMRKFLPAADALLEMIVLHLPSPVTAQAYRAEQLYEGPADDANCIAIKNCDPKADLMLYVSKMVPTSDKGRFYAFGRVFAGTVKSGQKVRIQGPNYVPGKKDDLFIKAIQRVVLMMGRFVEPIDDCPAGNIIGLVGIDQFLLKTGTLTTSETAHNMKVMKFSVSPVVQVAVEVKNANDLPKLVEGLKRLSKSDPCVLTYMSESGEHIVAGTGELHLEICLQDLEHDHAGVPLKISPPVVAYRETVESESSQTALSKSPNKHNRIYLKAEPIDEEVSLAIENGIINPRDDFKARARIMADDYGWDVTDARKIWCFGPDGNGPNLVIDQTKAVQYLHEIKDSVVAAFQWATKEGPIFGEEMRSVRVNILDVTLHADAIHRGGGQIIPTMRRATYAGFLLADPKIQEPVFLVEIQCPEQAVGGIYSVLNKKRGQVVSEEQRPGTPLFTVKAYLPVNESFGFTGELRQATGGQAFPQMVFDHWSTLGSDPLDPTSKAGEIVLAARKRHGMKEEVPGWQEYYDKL

B1: ribosomal protein P0 of the S. cerevisiae 60S subunit (P stalk) (natural protein, UniProt P05317 1-312, looked up)
chain: MGGIREKKAEYFAKLREYLEEYKSLFVVGVDNVSSQQMHEVRKELRGRAVVLMGKNTMVRRAIRGFLSDLPDFEKLLPFVKGNVGFVFTNEPLTEIKNVIVSNRVAAPARAGAVAPEDIWVRAVNTGMEPGKTSFFQALGVPTKIARGTIEIVSDVKVVDAGNKVGQSEASLLNLLNISPFTFGLTVVQVYDNGQVFPSSILDITDEELVSHFVSAVSTIASISLAIGYPTLPSVGHTLINNYKDLLAVAIAASYHYPEIEDLVDRIENPEKYAAAAPAATSAASGDAAPAEEAAAEEEEESDDDMGFGLFD
notes: 60S acidic ribosomal protein P0 (uL10), S. cerevisiae; part of the P stalk of the 60S subunit; Stood in the assay as a subunit of the 60S ribosomal subunit within the 80S ribosome, not as an isolated protein; also called eukaryote-specific protein P0; source: endogenous, in 60S subunits from 80S ribosomes purified from S. cerevisiae strain W303
  binding result: binds

— publication PMC4896748, “Ensemble cryo-EM uncovers inchworm-like translocation of a viral IRES through the ribosome” (eLife, 2016)
